Test results reported in IntAct's records for PubMed 29039417.

B1: BBSome complex member BBS4 (Homo sapiens), Q96RK4 (parent)
chain: MAEERVATRTQFPVSTESQKPRQKKAPEFPILEKQNWLIHLHYIRKDYEACKAVIKEQLQETQGLCEYAIYVQALIFRLEGNIQESLELFQTCAVLSPQSADNLKQVARSLFLLGKHKAAIEVYNEAAKLNQKDWEISHNLGVCYIYLKQFNKAQDQLHNALNLNRHDLTYIMLGKIHLLEGDLDKAIEVYKKAVEFSPENTELLTTLGLLYLQLGIYQKAFEHLGNALTYDPTNYKAILAAGSMMQTHGDFDVALTKYRVVACAVPESPPLWNNIGMCFFGKKKYVAAISCLKRANYLAPFDWKILYNLGLVHLTMQQYASAFHFLSAAINFQPKMGELYMLLAVALTNLEDIENAKRAYAEAVHLDKCNPLVNLNYAVLLYNQGEKKNALAQYQEMEKKVSLLKDNSSLEFDSEMVEMAQKLGAALQVGEALVWTKPVKDPKSKHQTTSTSKPASFQQPLGSNQALGQAMSSAAAYRTLPSGAGGTSQFTKPPSLPLEPEPAVESSPTETSEQIREK
partner: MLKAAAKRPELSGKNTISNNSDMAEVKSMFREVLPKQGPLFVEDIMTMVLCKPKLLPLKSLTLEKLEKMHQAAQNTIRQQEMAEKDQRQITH

Variants of: B1
Settings: with bbip1_human BBIP1, A8MTZ0

Variant | effect of a mutation on the interaction
S489E | with no effect
L367P | disrupting interaction strength
L367A | with no effect
L382A | with no effect
L310E | with no effect
K284E | with no effect
S483A | with no effect
G486E | with no effect
F326L | disrupting interaction strength
D368A | with no effect
A421V | disrupting interaction strength
A421E | with no effect
V430E | with no effect
L351K | with no effect
L351P | disrupting interaction strength
T316A | with no effect
S507E | with no effect
L327E | with no effect
L327H | disrupting interaction strength
L327T | disrupting interaction strength
T452K | with no effect
K493E | with no effect

Variant | effect of a mutation on the interaction
A476K | with no effect
V380K | with no effect
L428K | with no effect
Q319A | with no effect
P439E | with no effect
D414A | with no effect
D414K | with no effect
D414E | with no effect
M342V | disrupting interaction strength
P301L | disrupting interaction strength
Q429K | with no effect
Q429A | with no effect
D303E | with no effect
Y378E | with no effect
H314A | with no effect
Q459A | with no effect
Q318A | with no effect
A323V | disrupting interaction strength
D442A | with no effect
R479A | with no effect
I516A | with no effect
F281E | with no effect

Variant | effect of a mutation on the interaction
G282E | with no effect
Y361K | with no effect
A504K | with no effect
E432K | with no effect
V435K | with no effect
L376P | disrupting interaction strength
L376R | disrupting interaction strength
T480K | with no effect
I290A | with no effect
I290E | with no effect
G386E | with no effect
G386K | with no effect
L307P | disrupting interaction strength
G463E | with no effect
G463A | with no effect
N465A | with no effect
N350A | with no effect
V346E | disrupting interaction strength
L315A | with no effect
L315K | with no effect
A345T | disrupting interaction strength
A345E | with no effect

Variant | effect of a mutation on the interaction
A345K | with no effect
F413E | with no effect
G338K | with no effect
G338A | with no effect
G338R | disrupting interaction strength
M278A | with no effect
P482E | with no effect
M337E | with no effect
A364V | disrupting interaction strength
A364T | disrupting interaction strength
Q515A | with no effect
Q515K | with no effect
P498A | with no effect
L411E | with no effect
P372E | with no effect
C292A | with no effect
L405K | with no effect
L343E | with no effect
L343H | disrupting interaction strength
I306T | disrupting interaction strength
G487E | with no effect
